The text below walks through data of US20140037648A1 (HUMABS BIOMED, published 2014).

Experiment [1] deals with F protein of BRSV strain RB94 (BRSV (strain RB94)). In words: cell-based or functional assay.
The target in experiment [2] is F protein of PVM strain 15 (PVM (strain 15)). Put plainly: cell-based or functional assay.
Experiment [3] concerns the target T1, stabilized form of the full-length pre-fusion RSV F protein (RSV).
T1 construct: also called pre-fusion F protein; RSV F pre-fusion recombinant protein
Put plainly: surface plasmon resonance. In general terms: SPR reads the build-up and loss of mass on a sensor chip optically.

The target of experiment [4] is T2, F protein of RSV strain A2 (A, 1961 Australia; A/A2/61) (RSV (strain A2), UniProt P03420 26-574). In words: cell-based or functional assay.
Experiment [5] concerns the target F protein of RSV 18537 (B, Washington District of Columbia US, 1962; B/18537/62) (RSV (strain 18537), UniProt P13843 26-574). Put plainly: cell-based or functional assay.
Experiment [6] deals with F protein of RSV 9320 (B, Massachusetts US, 1977; B/9320/77) (RSV (strain 9320)). Put plainly: cell-based or functional assay.
Experiment [7] has as its target F protein of RSV WV/14617/85 (B, Huntington West Virginia, 1985; B/14617/85) (RSV (strain WV/14617/85)). In words: cell-based or functional assay.
The target of experiment [8] is T2, F protein of RSV strain A2 (A, 1961 …). In words: cell-based or functional assay. This is another data set of the same source.

B1: HMB3210v3 (antibody, V domains shown)
VH: EVQLVESGGGLVKPGGSLRLSCAASGFTFSSYSMNWVRQAPGKGLEWVSSISASSSYSDYADSAKGRFTISRDNAKTSLFLQMNSLRAEDTAIYFCARARATGYSSITPYFDIWGQGTLVTVSS
VL: QSVVTQPPSVSGAPGQRVTISCTGSSSNIGAGYDVHWYQQLPGTAPKLLIYDNNNRPSGVPDRFSASKSGTSASLAITGLQAEDEADYYCQSYDRSLSGVFGTGTKVTVL
notes: also called HMB3210 variant 3
For B1, in experiment [1], the “IC50, neutralization of BRSV strain RB94” value is 0.01 µg/mL. Further, the “IC50, neutralization of PVM strain 15” value in experiment [2] worked out at 0.1 µg/mL. Also, in experiment [3], the affinity, expressed as Kd, was 0.1 nM.

B2: Palivizumab (antibody, V domains shown)
VH: QVTLRESGPALVKPTQTLTLTCTFSGFSLSTSGMSVGWIRQPPGKALEWLADIWWDDKKDYNPSLKSRLTISKDTSKNQVVLKVTNMDPADTATYYCARSMITNWYFDVWGAGTTVTVSS
VL: DIQMTQSPSTLSASVGDRVTITCKCQLSVGYMHWYQQKPGKAPKLLIYDTSKLASGVPSRFSGSGSGTEFTLTISSLQPDDFATYYCFQGSGYPFTFGGGTKLEIK
Consider B2, for which the “Neutralization IC50” value in experiment [4] stood at 0.617 µg/mL; in experiment [5] it was 0.143 µg/mL; in experiment [6], 0.069 µg/mL; in experiment [7], 0.129 µg/mL. The “IC50 (ng/ml), microneutralization” value in experiment [8] was determined as 524 ng/mL.

As usually defined, the Kd is the free concentration of one partner at which half of the binding sites on the other are occupied at equilibrium, for simple one-to-one binding.
